From patent US20250320312A1 (OXITOPE PHARMA B V, published 2025)
Positions count from the first letter of the chain named.

T1: Peptide 8: Biotin-AEAAAKEAAAKEAAAKEAAAKAAA-Tyr-acid (N-terminal biotin; C-terminal acid)
T1 construct: Control peptide without PC
T1 peptide: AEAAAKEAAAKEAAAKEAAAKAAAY

T2: Peptide 4: Biotin-AGGGGSGGGGSGGGGSAAA-Tyr-acid (N-terminal biotin; C-terminal acid)
T2 construct: Control peptide without PC
T2 peptide: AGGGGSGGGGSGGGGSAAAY

B1: PcOxP_DB02_F04 (scFv, V domains shown)
VH: EVQLLESGGGLVQPGGSLRLSCAASGFTGSDFYMEWVRQAPGKGLEWVAASRNSGNSYTTAYADSVKGRFTISRDNSKNTLYLQMNSLRAEDTAVYYCARDYFGSSYWYFDVWGQGTLVTVSS
VL: DIVMTQSPDSLAVSLGERATINCTASESLYSSKHKVHYLAWYQQKPGQPPKLLIYGASNRYIGVPDRFSGSGSGTDFTLTISSLQAEDVAVYYCAQFYSYPLTFGGGTKVEIK
notes: scFv in periplasmic extract
B2: PcOxP_DB02_G04 (scFv, V domains shown)
VH: B1 VH with G29F, F32Y, N53W, S54K, G55A, S57D, A61E, F103Y
VL: B1 VL with T24K, E27Q, L29V, Y30L, S31Y, H34N, V36K, Y61Q, S99V
notes: scFv in periplasmic extract
B3: PcOxP_DB03_A05 (scFv, V domains shown)
VH: B1 VH with G29F, D31E, S54K, G55A, S57D, A61E, F103Y
VL: B1 VL with Y61A, S99F
notes: scFv in periplasmic extract
B4: PcOxP_DB02_F06 (scFv, V domains shown)
VH: B1 VH with G29F, F32E, S54K, G55A, S57D, Y58F, A61E, Y102F, F103Y
VL: B1 VL with L29I
notes: scFv in periplasmic extract
B5: PcOxP_DB02_G05 (scFv, V domains shown)
VH: B1 VH with G29F, S54K, G55A, S57D, A61E, F103Y, Y107H
VL: B1 VL with V36L, A95G
notes: scFv in periplasmic extract
B6: PcOxP_DB03_A07 (scFv, V domains shown)
VH: B1 VH with T28H, G29F, S54K, G55A, S57D, A61E, F103Y
VL: B1 VL with S28N, I62S
notes: scFv in periplasmic extract
B7: PcOxP_DB03_A12 (scFv, V domains shown)
VH: B1 VH with G29F, F32G, S54K, G55A, S57D, F103Y
VL: B1 VL with A95G
notes: scFv in periplasmic extract
B8: PcOxP_DB02_H05 (scFv, V domains shown)
VH: B1 VH with G29F, S54K, G55A, S57D, A61E, F103Y, V112P
VL: B1 VL with I62L
notes: scFv in periplasmic extract
B9: PcOxP_DB02_G02 (scFv, V domains shown)
VH: B1 VH with T28G, G29F, S54K, G55A, S57D, A61E, F103Y
VL: B1 VL with I62S
notes: scFv in periplasmic extract
B10: PcOxP_DB02_H07 (scFv, V domains shown)
VH: B1 VH with G29F, D31S, F32Y, S54K, G55A, S57D, A61E, F103Y
VL: B1 VL with I62N, S99T
notes: scFv in periplasmic extract
B11: PcOxP_DB03_B06 (scFv, V domains shown)
VH: B1 VH with F27I, G29F, S54K, G55Y, S57D, A61E, F103Y
VL: B1 VL with I62T
notes: scFv in periplasmic extract
B12: PcOxP_DB03_A06 (scFv, V domains shown)
VH: B1 VH with G29F, D31S, F32Y, N53S, S54K, G55A, S57D, A61E, F103Y, S106Q
VL: B1 VL with S32N
notes: scFv in periplasmic extract
B13: PcOxP_DB03_B07 (scFv, V domains shown)
VH: B1 VH with T28G, G29F, S54K, G55A, S57D, A61E, F103Y, G104S
VL: B1 VL
notes: scFv in periplasmic extract
B14: PcOxP_DB03_B01 (scFv, V domains shown)
VH: B1 VH with G29F, D31S, F32Y, S54T, G55A, S57D, A61E, F103Y
VL: B1 VL with Y61E
notes: scFv in periplasmic extract
B15: PcOxP_DB02_H08 (scFv, V domains shown)
VH: B1 VH with G29F, F32A, S54K, G55A, S57D, A61E, F103Y, S106H
VL: B1 VL with A25S, E27Q, K35N, V36K
notes: scFv in periplasmic extract
B16: PcOxP_DB02_F11 (scFv, V domains shown)
VH: B1 VH with F27T, G29F, S54K, G55Y, S57D, A61E, F103Y
VL: B1 VL with I62P
notes: scFv in periplasmic extract
B17: PcOxP_DB03_B03 (scFv, V domains shown)
VH: B1 VH with G29F, F32G, S54K, G55A, S57D, A61E, F103Y
VL: B1 VL with S99V
notes: scFv in periplasmic extract
B18: PcOxP_DB02_H06 (scFv, V domains shown)
VH: B1 VH with G29F, F32Q, S54K, G55A, S57D, A61E, F103Y
VL: B1 VL with A25S, H34N, H37N, S99F
notes: scFv in periplasmic extract
B19: PcOxP_DB03_A10 (scFv, V domains shown)
VH: B1 VH with F27W, G29F, S54K, G55A, S57D, A61E, F103Y
VL: B1 VL with N59Q, S99L
notes: scFv in periplasmic extract
B20: PcOxP_DB03_B08 (scFv, V domains shown)
VH: B1 VH with G29F, F32Y, S54K, G55A, S57D, A61E, F103Y
VL: B1 VL with Q96N
notes: scFv in periplasmic extract
B21: PcOxP_DB02_F09 (scFv, V domains shown)
VH: B1 VH with T28Q, G29F, S54K, F103Y
VL: B1 VL with I62S
notes: scFv in periplasmic extract
B22: PcOxP_DB02_H04 (scFv, V domains shown)
VH: B1 VH with G29F, F32E, S54K, G55A, S57D, A61E, F103Y
VL: B1 VL with H37V, S99F
notes: scFv in periplasmic extract
B23: PcOxP_DB03_A04 (scFv, V domains shown)
VH: B1 VH with F27D, G29F, S54K, G55A, S57D, T59S, A61E, F103Y
VL: B1 VL with T24E
notes: scFv in periplasmic extract
B24: PcOxP_DB02_H09 (scFv, V domains shown)
VH: B1 VH with G29F, D31S, F32Y, S54K, G55A, S57D, T60Y, A61E, F103Y, G104E
VL: B1 VL
notes: scFv in periplasmic extract
B25: PcOxP_DB02_F10 (scFv, V domains shown)
VH: B1 VH with G29F, F32Q, S54K, G55A, S57D, A61E, F103Y
VL: B1 VL with A25S, E27Q, L29V, Y30L, K35N, V36K, H37N, I62W
notes: scFv in periplasmic extract

Target: T1, Peptide 8: …
Experiment: scFv ELISA
Summary of the method: (§1)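 Bound scFv was read as OD450 after HRP–anti-V5 detection, TMB development and HCl stop. PPE with BSA was incubated 1 h at RT on BSA-blocked wells coated overnight at 4° C. with peptide, or on streptavidin wells loaded 1 h with biotinylated PC-peptides at 1 μg/mL.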

| Binder | OD450 |
| --- | --- |
| B1 | 0.05 OD450 |
| B2 | 0.05 OD450 |
| B3 | 0.04 OD450 |
| B4 | 0.04 OD450 |
| B5 | 0.07 OD450 |
| B6 | 0.04 OD450 |
| B7 | 0.05 OD450 |
| B8 | 0.04 OD450 |
| B9 | 0.04 OD450 |
| B10 | 0.05 OD450 |
| B11 | 0.05 OD450 |
| B12 | 0.05 OD450 |
| B13 | 0.05 OD450 |
| B14 | 0.04 OD450 |
| B15 | 0.06 OD450 |
| B16 | 0.04 OD450 |
| B17 | 0.04 OD450 |
| B18 | 0.05 OD450 |
| B19 | 0.04 OD450 |
| B20 | 0.04 OD450 |
| B21 | 0.04 OD450 |
| B22 | 0.04 OD450 |
| B23 | 0.04 OD450 |
| B24 | 0.04 OD450 |
| B25 | 0.04 OD450 |

Target: T2, Peptide 4: …
Experiment: scFv ELISA
Summary of the method: as §1

| Binder | OD450 |
| --- | --- |
| B1 | 0.04 OD450 |
| B2 | 0.05 OD450 |
| B3 | 0.04 OD450 |
| B4 | 0.04 OD450 |
| B5 | 0.05 OD450 |
| B6 | 0.04 OD450 |
| B7 | 0.06 OD450 |
| B8 | 0.04 OD450 |
| B9 | 0.04 OD450 |
| B10 | 0.04 OD450 |
| B11 | 0.04 OD450 |
| B12 | 0.05 OD450 |
| B13 | 0.06 OD450 |
| B14 | 0.04 OD450 |
| B15 | 0.04 OD450 |
| B16 | 0.04 OD450 |
| B17 | 0.04 OD450 |
| B18 | 0.05 OD450 |
| B19 | 0.04 OD450 |
| B20 | 0.05 OD450 |
| B21 | 0.04 OD450 |
| B22 | 0.05 OD450 |
| B23 | 0.04 OD450 |
| B24 | 0.04 OD450 |
| B25 | 0.05 OD450 |

What follows are binders tested against BSA (UniProt P02769) (assay: scFv ELISA).
Sequence of BSA (P02769 25-607 limits assumed): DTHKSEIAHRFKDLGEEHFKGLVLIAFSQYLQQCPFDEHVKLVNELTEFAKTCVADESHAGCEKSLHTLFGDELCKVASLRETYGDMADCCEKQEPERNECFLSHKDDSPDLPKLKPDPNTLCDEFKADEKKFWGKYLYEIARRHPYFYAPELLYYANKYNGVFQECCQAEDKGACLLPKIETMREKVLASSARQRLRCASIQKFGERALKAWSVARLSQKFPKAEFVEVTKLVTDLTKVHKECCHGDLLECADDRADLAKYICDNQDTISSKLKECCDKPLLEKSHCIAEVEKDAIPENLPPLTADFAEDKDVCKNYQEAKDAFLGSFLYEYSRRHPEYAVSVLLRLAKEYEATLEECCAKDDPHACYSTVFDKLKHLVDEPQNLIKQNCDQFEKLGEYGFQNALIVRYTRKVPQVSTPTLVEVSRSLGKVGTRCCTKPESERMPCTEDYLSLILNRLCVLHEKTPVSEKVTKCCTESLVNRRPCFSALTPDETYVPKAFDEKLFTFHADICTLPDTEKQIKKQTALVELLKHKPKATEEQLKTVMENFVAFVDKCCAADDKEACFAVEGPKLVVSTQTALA

| Binder | OD450 |
| --- | --- |
| B1 | 0.09 OD450 |
| B2 | 0.11 OD450 |
| B3 | 0.06 OD450 |
| B4 | 0.06 OD450 |
| B5 | 0.11 OD450 |
| B6 | 0.06 OD450 |
| B7 | 0.07 OD450 |
| B8 | 0.09 OD450 |
| B9 | 0.06 OD450 |
| B10 | 0.07 OD450 |
| B11 | 0.06 OD450 |
| B12 | 0.08 OD450 |
| B13 | 0.12 OD450 |
| B14 | 0.06 OD450 |
| B15 | 0.07 OD450 |
| B16 | 0.08 OD450 |
| B17 | 0.07 OD450 |
| B18 | 0.07 OD450 |
| B19 | 0.06 OD450 |
| B20 | 0.07 OD450 |
| B21 | 0.08 OD450 |
| B22 | 0.06 OD450 |
| B23 | 0.06 OD450 |
| B24 | 0.07 OD450 |
| B25 | 0.09 OD450 |

Each binder was assayed against Peptide 1: Biotin-…-[Tyr(PC)]-acid (assay: scFv ELISA).

| Binder | OD450 |
| --- | --- |
| B1 | 0.47 OD450 |
| B2 | 0.32 OD450 |
| B3 | 0.93 OD450 |
| B4 | 0.16 OD450 |
| B5 | 1.49 OD450 |
| B6 | 0.94 OD450 |
| B7 | 2.28 OD450 |
| B8 | 0.2 OD450 |
| B9 | 1.01 OD450 |
| B10 | 0.56 OD450 |
| B11 | 0.68 OD450 |
| B12 | 0.99 OD450 |
| B13 | 0.66 OD450 |
| B14 | 0.21 OD450 |
| B15 | 0.4 OD450 |
| B16 | 0.23 OD450 |
| B17 | 1.12 OD450 |
| B18 | 0.92 OD450 |
| B19 | 0.6 OD450 |
| B20 | 2.63 OD450 |
| B21 | 0.39 OD450 |
| B22 | 0.22 OD450 |
| B23 | 0.19 OD450 |
| B24 | 0.25 OD450 |
| B25 | 0.51 OD450 |

The binders below were run against Peptide 5: Biotin-…-[Tyr(PC)]-acid (assay: scFv ELISA).

| Binder | OD450 |
| --- | --- |
| B1 | 0.74 OD450 |
| B2 | 0.7 OD450 |
| B3 | 0.78 OD450 |
| B4 | 0.45 OD450 |
| B5 | 1.8 OD450 |
| B6 | 1.01 OD450 |
| B7 | 1.67 OD450 |
| B8 | 0.44 OD450 |
| B9 | 1.13 OD450 |
| B10 | 0.88 OD450 |
| B11 | 1.01 OD450 |
| B12 | 1.07 OD450 |
| B13 | 0.81 OD450 |
| B14 | 0.64 OD450 |
| B15 | 1.34 OD450 |
| B16 | 0.66 OD450 |
| B17 | 1.1 OD450 |
| B18 | 1.04 OD450 |
| B19 | 0.54 OD450 |
| B20 | 1.95 OD450 |
| B21 | 0.93 OD450 |
| B22 | 0.2 OD450 |
| B23 | 0.47 OD450 |
| B24 | 0.58 OD450 |
| B25 | 1.2 OD450 |
